Residue numbers refer to the chain shown, from its start. A value given as a limit tells only on which side of the number the result lay.

Assay [1] deals with T1, human SIRPγ, extracellular domain, Avi-FXa-Fc tag (human, biotinylated).
T1 construct: also called huSIRPγ
As to the kind of experiment: SPR, captured biotinylated antigen. The protocol:
(§1) Surface Plasmon Resonance (SPR) assay: Affinity analysis was performed by single cycle kinetics analysis on a Surface Plasmon Resonance apparatus (BiaCore™ T200 system, GE Life Sciences) at 25° C. […] For each step an association time of 150 sec was used, followed by a dissociation time of 600 sec after the highest concentration only, all at a flow rate of 30 μl/min. Regeneration was performed with 6 M guanidine-HCl, 0.25 M NaOH solution (120 sec with flow rate of 30 μl/min). […] Sensorgrams were fitted with a 1:1 Langmuir model for all tested anti-SIRP antibodies. The kinetic parameters (association rate [kₐ], dissociation rate [kd] and binding constant, also referred to as equilibrium dissociation constant or binding affinity [KD]) were calculated using BiaCore™ T200 evaluation software (v3.1).
A general note: Surface plasmon resonance follows binding to a sensor surface in real time, without labels.

In assay [2] the target is T2, human SIRPβ1v2, extracellular domain, Avi-FXa-Fc tag (human, biotinylated).
T2 construct: also called huSIRPβ1v2
As to the kind of experiment: SPR, captured biotinylated antigen. On the procedure:
as §1

The target in assay [3] is T3, human SIRPα1 extracellular domain 1-370, Avi-FXa-Fc tag (human, biotinylated).
T3 construct: also called huSIRPα1; v2
As to the kind of experiment: SPR, captured biotinylated antigen. The protocol:
as §1

For assay [4], the target named is T4, human SIRPαBIT, extracellular domain 1-370, Avi-FXa-Fc tag (human, biotinylated).
T4 construct: also called huSIRPαBIT; v1
As to the kind of experiment: SPR, captured biotinylated antigen. The protocol: as §1

Assay [5] deals with T5, human SIRPβ1v1, extracellular domain, Avi-FXa-Fc tag (human, biotinylated).
T5 construct: also called huSIRPβ1v1
As to the kind of experiment: SPR, captured biotinylated antigen. On the procedure:
as §1

In assay [6] the target is T6, cynomolgus monkey SIRPα, extracellular domain, Avi-FXa-Fc tag (cynomolgus monkey, biotinylated).
T6 construct: also called cySIRPα
As to the kind of experiment: SPR, captured biotinylated antigen; sub-optimal fit. The protocol: as §1

The target in assay [7] is T7, cynomolgus monkey SIRPα expressed on ExpiCHO-S cells (cynomolgus monkey, UniProt A0A2K5VYQ9 31-507).
T7 construct: whole, on cells; also called cySIRPα; ExpiCHO-S (cySIRPα)
T7 sequence: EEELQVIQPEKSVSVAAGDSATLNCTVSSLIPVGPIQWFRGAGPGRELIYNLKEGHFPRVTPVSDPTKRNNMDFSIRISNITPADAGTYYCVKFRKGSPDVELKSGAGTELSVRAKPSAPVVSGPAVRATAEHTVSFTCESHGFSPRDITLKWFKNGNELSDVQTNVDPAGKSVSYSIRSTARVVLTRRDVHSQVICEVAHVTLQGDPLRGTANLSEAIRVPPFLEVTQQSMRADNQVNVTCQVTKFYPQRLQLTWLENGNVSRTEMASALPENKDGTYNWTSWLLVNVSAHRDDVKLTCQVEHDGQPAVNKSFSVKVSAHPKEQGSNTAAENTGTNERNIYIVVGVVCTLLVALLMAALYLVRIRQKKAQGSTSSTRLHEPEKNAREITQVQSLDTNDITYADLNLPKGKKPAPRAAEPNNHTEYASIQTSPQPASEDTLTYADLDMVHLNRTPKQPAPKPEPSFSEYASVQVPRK
As to the kind of experiment: flow cytometry, ExpiCHO-S cells. On the procedure:
(§2) After an incubation time of 30 min at 4° C., the cells were washed three times with ice-cold FACS buffer and 50 μl/well secondary mAb (for human antibodies, AffiniPure F(ab′)₂ fragment Goat-anti-human IgG-APC, 1:6,000 dilution, Jackson Immuno Research was added and for mouse antibodies, AffiniPure Fab fragment Goat Anti-Mouse IgG (H+L)-Alexa Fluor 488, 1:1,000 dilution, Jackson Immuno Research was added). After 30 min at 4° C., cells were washed twice and resuspended in 150 μl FACS buffer. Fluorescence intensities were determined by flow cytometry (BD FACSVerse, Franklin Lakes, N.J.) and indicated as the median fluorescence intensity (MFI-Median) for U937 cells and the mean fluorescence intensity (MFI-Mean) for ExpiCHO-S cells. Curves were fitted by nonlinear regression using the sigmoidal dose-response equation with variable slope (four parameters) in GraphPad Prism (version 7.02 for Windows, GraphPad, San Diego, Calif.). EC₅₀ values were calculated as the concentration in μg/ml that gives a response half way between bottom and top of the curve, when using a 4-parameter logistic fit.
Background: In flow cytometry, cells or beads pass a laser one at a time.

In assay [8] the target is T8, human SIRPα1 expressed on cells (human, UniProt P78324 31-504).
T8 construct: whole, on cells; also called huSIRPα1; ExpiCHO-S (huSIRPα1)
As to the kind of experiment: flow cytometry, ExpiCHO-S cells. The protocol: as §2

Assay [9] deals with T9, human SIRPαBIT expressed on cells (human, UniProt P78324 31-504).
T9 construct: endogenous on U937 cells or transiently expressed on ExpiCHO-S cells; in the SHP-1 assay a ProLink-tagged form on Jurkat cells; also called huSIRPαBIT; U937 cells (huSIRPαBIT)
As to the kind of experiment: flow cytometry, ExpiCHO-S cells. On the procedure: as §2

Assay [10] deals with T10, human SIRPγ on human CD3+ T-cells (human, UniProt Q9P1W8 29-387).
T10 construct: whole, on cells
As to the kind of experiment: flow cytometry on CD3+ T-cells in PBMC of two healthy individuals, % of positive cells. On the procedure:
(§3) Flow Cytometry assay: Peripheral mononuclear cells (PBMC) were isolated from fresh blood of healthy individuals using Percoll gradient. […] Cells (200,000 cells/well in a 96-well plate) were subsequently incubated in the presence of tested antibodies or control conditions with secondary antibodies only (secondary goat anti-human IgG Alexa 633 F(ab′)₂ fragment, dilution 1:1000, Jackson Immuno Research, and secondary goat anti-mouse IgG Alexa 633 F(ab′)₂ fragment, dilution 1:250, Invitrogen) for 30 min on ice. After that, cells were washed with FACS buffer and resuspended in a mixture of anti-human CD3 FITC antibody (dilution 1:100, Invitrogen) with respective secondary antibody (either anti-human or anti-mouse) and incubated for 30 min in the dark on ice. Afterwards the cells were washed with FACS buffer and resuspended in 150 μl of FACS buffer and fluorescence intensities were determined by flow cytometry (LSRII HTS or LSRFortessa, BD Biosciences, CA, USA) and indicated as the median fluorescence intensity (MFI-Median) and percentage of positive cells.

In assay [11] the target is T9, human SIRPαBIT expressed on cells. As to the kind of experiment: flow cytometry, U937 cells. The protocol: as §2
The target of assay [12] is T10, human SIRPγ on human CD3+ T-cells. As to the kind of experiment: flow cytometry on CD3+ T-cells in PBMC of two healthy individuals, MFI. The protocol:
as §3

The target of assay [13] is T6, cynomolgus monkey SIRPα, extracellular …. As to the kind of experiment: SPR, captured biotinylated antigen. On the procedure: as §1

T10 sequence (Q9P1W8 29-387): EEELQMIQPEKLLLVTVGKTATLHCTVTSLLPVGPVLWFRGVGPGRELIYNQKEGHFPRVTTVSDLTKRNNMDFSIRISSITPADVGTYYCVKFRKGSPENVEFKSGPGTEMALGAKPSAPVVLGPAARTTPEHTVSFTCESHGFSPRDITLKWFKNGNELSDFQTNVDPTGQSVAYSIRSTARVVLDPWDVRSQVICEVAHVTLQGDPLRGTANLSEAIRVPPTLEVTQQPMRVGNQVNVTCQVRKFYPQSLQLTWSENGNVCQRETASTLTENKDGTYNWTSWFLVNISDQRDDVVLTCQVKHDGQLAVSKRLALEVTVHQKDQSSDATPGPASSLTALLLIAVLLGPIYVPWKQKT
T4 sequence (chain, as listed by the source limits assumed): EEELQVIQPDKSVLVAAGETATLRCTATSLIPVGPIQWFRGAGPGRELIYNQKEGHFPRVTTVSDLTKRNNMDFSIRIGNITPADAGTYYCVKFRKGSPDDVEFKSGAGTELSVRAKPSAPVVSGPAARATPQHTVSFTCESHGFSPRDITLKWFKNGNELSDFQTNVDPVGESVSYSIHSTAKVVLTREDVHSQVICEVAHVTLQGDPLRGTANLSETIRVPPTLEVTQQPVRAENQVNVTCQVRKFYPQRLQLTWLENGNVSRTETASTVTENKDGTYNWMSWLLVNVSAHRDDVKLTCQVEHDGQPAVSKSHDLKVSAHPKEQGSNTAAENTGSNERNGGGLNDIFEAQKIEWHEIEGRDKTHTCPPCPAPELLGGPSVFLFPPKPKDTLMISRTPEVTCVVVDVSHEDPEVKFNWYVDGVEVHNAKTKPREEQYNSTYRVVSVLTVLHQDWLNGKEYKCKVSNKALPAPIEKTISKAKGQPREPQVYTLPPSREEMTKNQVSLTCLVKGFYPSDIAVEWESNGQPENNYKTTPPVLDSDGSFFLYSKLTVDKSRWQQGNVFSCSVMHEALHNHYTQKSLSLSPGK
T3 sequence (chain, as listed by the source limits assumed): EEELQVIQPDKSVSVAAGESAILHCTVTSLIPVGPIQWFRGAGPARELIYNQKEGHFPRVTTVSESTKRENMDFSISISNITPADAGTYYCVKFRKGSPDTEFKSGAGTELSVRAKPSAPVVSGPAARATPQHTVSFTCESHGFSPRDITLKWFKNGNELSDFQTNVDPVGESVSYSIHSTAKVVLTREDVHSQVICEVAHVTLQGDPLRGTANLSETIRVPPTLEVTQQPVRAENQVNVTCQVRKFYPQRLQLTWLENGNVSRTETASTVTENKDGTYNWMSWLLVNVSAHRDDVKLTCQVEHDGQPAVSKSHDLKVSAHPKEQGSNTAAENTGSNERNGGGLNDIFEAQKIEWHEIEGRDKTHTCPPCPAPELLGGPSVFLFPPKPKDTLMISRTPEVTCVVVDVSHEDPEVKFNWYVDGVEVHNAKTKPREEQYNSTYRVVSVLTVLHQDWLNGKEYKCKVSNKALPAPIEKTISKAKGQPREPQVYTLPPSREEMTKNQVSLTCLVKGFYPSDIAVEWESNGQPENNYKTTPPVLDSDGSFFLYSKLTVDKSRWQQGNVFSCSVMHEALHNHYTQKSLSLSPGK
T2 sequence (chain, as listed by the source limits assumed): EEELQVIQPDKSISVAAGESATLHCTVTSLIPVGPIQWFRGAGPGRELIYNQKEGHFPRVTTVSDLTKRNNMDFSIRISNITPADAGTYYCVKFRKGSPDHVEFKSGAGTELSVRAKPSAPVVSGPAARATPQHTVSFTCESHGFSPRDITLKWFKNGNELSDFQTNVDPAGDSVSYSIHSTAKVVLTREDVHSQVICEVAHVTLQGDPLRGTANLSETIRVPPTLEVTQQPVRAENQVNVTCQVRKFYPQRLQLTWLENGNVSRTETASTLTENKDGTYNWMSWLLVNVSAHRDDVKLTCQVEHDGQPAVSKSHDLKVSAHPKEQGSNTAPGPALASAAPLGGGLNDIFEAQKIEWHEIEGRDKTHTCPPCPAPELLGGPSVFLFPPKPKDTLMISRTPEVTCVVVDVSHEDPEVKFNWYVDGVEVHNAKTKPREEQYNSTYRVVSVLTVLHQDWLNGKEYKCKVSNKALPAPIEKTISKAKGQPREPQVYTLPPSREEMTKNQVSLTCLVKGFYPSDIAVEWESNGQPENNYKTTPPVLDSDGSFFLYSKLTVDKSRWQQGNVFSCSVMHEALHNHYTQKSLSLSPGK
T1 sequence (chain, as listed by the source limits assumed): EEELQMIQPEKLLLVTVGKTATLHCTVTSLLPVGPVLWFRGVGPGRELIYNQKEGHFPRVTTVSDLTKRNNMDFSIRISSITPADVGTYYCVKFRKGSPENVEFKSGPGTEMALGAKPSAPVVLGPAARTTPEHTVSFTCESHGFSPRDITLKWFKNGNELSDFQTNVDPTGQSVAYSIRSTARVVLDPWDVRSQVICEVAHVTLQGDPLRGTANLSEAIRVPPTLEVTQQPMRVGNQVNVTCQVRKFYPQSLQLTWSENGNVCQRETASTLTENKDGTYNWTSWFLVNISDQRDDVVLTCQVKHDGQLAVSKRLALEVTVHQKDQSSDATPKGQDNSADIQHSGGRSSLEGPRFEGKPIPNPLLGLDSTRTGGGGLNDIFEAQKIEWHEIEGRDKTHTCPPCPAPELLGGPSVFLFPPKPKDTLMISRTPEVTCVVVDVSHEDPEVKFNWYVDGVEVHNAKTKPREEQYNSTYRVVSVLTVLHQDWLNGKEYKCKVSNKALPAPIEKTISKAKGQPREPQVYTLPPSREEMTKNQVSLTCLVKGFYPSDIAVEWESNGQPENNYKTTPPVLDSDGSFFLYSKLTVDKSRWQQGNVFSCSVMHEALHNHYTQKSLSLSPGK
T5 sequence (chain, as listed by the source limits assumed): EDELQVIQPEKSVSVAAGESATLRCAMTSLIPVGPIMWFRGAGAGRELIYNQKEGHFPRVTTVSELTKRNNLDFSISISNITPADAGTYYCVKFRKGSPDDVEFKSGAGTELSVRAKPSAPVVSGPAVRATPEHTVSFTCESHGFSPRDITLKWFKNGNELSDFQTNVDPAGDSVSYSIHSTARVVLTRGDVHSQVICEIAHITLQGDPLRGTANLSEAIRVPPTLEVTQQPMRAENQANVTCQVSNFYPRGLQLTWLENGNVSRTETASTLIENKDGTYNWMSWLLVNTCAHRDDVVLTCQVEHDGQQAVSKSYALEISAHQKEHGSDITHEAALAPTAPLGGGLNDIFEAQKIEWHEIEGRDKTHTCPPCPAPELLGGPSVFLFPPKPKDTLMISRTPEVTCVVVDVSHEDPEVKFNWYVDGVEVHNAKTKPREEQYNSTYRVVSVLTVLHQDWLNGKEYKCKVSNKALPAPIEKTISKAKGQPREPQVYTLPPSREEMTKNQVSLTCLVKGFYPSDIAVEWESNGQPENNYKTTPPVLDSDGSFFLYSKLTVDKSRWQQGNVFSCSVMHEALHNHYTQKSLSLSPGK

B1: humanized anti-SIRPα antibody 5 (antibody, human IgG1, kappa, L234A L235A, V domains shown)
VH: RQLVESGGGLVQPGGSLRLSCAASGFSLSSHGISWVRQAPGKGLEYIGTIGTGVITYYASWAKGRFTGSKTSSTAYLQMTSLRAEDTAVYYCARGSAWNDPFDYWGQGTLVTVSS
VL: DIEMTQSPSSVSASVGDRVTLTCQASQSVYGNNDLAWYQQKPGQAPKLLIYLASTLATGVPSRFSGSGSGTDFTLTISSLQPEDFATYYCLGGGDDEADNVFGGGTKVEIKR
notes: human IgG1 LALA, kappa; also called mAb 5
As a reminder, the Kd is the equilibrium constant for the complex coming apart. As usually defined, the EC50 is the concentration that produces a half-maximal response. As to B1, the binding result in assay [1] is on record as “no binding (tested: below 10 RU cut-off; up to 1600 ng/ml)”; in [10], “no binding”. Besides, the Kd in [2] was 2.97 nM; in [3], below 0.01 nM; in assay [4] it was 0.142 nM; in [5] it was 0.593 nM; in [6], 76.2 nM. The EC50 in [7] came out at 1.91 µg/mL; in [8] it was 0.22 µg/mL; in [9] it was 0.12 µg/mL; in assay [11], 1.6 µg/mL.

B2: humanized anti-SIRPα antibody 8 (antibody, human IgG1, kappa, L234A L235A, V domains shown)
VH: B1 VH
VL: B1 VL with E3V, V11L, L21I, V101T, G104Q
notes: human IgG1 LALA, kappa; also called mAb 8
For B2, the binding result is on record as “no binding (tested: below 10 RU cut-off; up to 1600 ng/ml)” in assay [1] and “no binding” in assay [10]. Further, the Kd in [2] was 1.84 nM; in assay [3] it was below 0.01 nM; in assay [4] it was 0.152 nM; in assay [5], 0.661 nM; in assay [6] it was 1.88 nM. In addition, the EC50 came out at 2.44 µg/mL in [7], 0.17 µg/mL in assay [8], 0.14 µg/mL in [9] and 1.04 µg/mL in assay [11].

B3: humanized anti-SIRPα antibody 13 (antibody, human IgG1, kappa, L234A L235A)
heavy: not shown
light: DIQMTQSPSSLSASVGDRVTITCRASQSINSYLAWYQQKPGKAPKLLIYSASFLYSGVPSRFSGSGSGTDFTLTISSLQPEDFATYYCQSWHYISRSYTFGQGTKVEIKRTVAAPSVFIFPPSDEQLKSGTASVVCLLNNFYPREAKVQWKVDNALQSGNSQESVTEQDSKDSTYSLSSTLTLSKADYEKHKVYACEVTHQGLSSPVTKSFNRGEC
notes: human IgG1 LALA, kappa; also called mAb 13
As to B3, the binding result in assay [12] is “no binding”; in assay [1] it was “no binding (tested: below 10 RU cut-off; up to 1600 ng/ml)”. The Kd is 2.05 nM in [13], 2.78 nM in [2], 1.41 nM in [3] and below 0.01 nM in assay [4]. Also, the EC50 came out at 0.11 µg/mL in assay [7], 0.27 µg/mL in assay [8], 0.28 µg/mL in [9] and 0.08 µg/mL in assay [11].

The values are drawn from patent US20210388107A1 (BYONDIS B V, published 2021).
